Measured values from paper PMC9182242, “Copper Binding and Oligomerization Studies of the Metal Resistance Determinant CrdA from Helicobacter pylori” (Molecules, 2022).

Target: the molecule itself
Assay: SEC; analytical SEC, Superose 12 10/300 GL, 20 mM Tris-base pH 7.5, 150 mM NaCl, 3.8 mM nOG; HpCrdA incubated with EDTA (metal chelated); monomer-dimer equilibrium

B1: CrdA protein from Helicobacter pylori (HpCrdA) (natural protein)
chain: QTLKANDLEVKIKSVGNPIKGDNTFILSPTLKGKALEKAIVRVQFMMPEMPGMPAMKEMAQVSEKNGLYEAKTNLSMNGTWQVRVDIKSKEGQVYRAKTSLDL
notes: predicted mass of the monomer ~12.4 kDa; Residues of the pGEX-6P-1 linker probably remain after PreScission cleavage (surmised); also called HP1326; apo-HpCrdA; source: E. coli BL21(DE3), purified (GSTrap, GST cleaved with PreScission protease, Superdex 75 SEC); not shown: GST, N-terminal, cleaved
- stoichiometry N: 2
